These results are taken from PMC7319049 (Nature, 2020).

To fix the notation:
B1: Swi3 (natural protein)
chain: MENTLGEGSTVNASVDVDQHGNDNNSDSNANAAVAGVANTDTAGEESQQQDESLKDEATVPNTRDAESEAITVTAKQQPTMQANKLDSQETPSTEESRAQNVFGQDNEDSDNLFGETESSVSNNEANTPSIPTNPVDNENNKPAIKEDSTIQDSNGDVKNMEDVKIQKEEEPENNTVIEGVKEESQPDENTKEMDEVEEDDEDDDQPMISPDNSIFGDTKSESKQLGNTSSVANTPSEIPDAHKAEQEDIIEKTESVDKKVDSGEERNEQEREIMNDHSKSANPKKTTITRVEPETFEIPQAHEIVIPSYSKWFNLEKIHSIEVQSLPEFFTNRIPSKTPEVYMRYRNFMVNSYRLNPNEYFSVTTARRNVSGDAAALFRLHKFLTKWGLINYQVDSKLLPKNIEPPLTSQYSTRHDAPRGLFPFESYKPSVQLPDMAKLKKMMNTSDSESTLYKYLKESKRKYDEITHPPSTTDDENGDKNDNGGKMNNEVSTSTSMTGDANLLEEGETSRPLKKVKILEQIDENWSKEDLQKLLKGIQEFGADWYKVAKNVGNKSPEQCILRFLQLPIEDKFLYGDGNGKGDNDNGLGPLKYAPHLPFSKSENPVLSTIAFLVGLVNPKTVQSMTQRAIQSAESIKSQKEEISDQKPIEHIKEGSEIAISSLGYRSHIFATNEERQMNFLTNELIRLQMEKLDAKLNHLKKLEKFMELERKTLERQQENLLIQRLNFNQNSSKIVNVLSKCLNLISDSNINNSSVAEKEEIRSQIDHFKSMLSKPETLSIGKNPFNKPNIETGENHNGQSISNENDVKPISIEAPQFYRYWSA

Common to all, as to test: cryo-EM structure
In one data set the target is Snf2 (S. cerevisiae, UniProt P22082 1-1703).
Snf2, sequence (P22082 whole entry): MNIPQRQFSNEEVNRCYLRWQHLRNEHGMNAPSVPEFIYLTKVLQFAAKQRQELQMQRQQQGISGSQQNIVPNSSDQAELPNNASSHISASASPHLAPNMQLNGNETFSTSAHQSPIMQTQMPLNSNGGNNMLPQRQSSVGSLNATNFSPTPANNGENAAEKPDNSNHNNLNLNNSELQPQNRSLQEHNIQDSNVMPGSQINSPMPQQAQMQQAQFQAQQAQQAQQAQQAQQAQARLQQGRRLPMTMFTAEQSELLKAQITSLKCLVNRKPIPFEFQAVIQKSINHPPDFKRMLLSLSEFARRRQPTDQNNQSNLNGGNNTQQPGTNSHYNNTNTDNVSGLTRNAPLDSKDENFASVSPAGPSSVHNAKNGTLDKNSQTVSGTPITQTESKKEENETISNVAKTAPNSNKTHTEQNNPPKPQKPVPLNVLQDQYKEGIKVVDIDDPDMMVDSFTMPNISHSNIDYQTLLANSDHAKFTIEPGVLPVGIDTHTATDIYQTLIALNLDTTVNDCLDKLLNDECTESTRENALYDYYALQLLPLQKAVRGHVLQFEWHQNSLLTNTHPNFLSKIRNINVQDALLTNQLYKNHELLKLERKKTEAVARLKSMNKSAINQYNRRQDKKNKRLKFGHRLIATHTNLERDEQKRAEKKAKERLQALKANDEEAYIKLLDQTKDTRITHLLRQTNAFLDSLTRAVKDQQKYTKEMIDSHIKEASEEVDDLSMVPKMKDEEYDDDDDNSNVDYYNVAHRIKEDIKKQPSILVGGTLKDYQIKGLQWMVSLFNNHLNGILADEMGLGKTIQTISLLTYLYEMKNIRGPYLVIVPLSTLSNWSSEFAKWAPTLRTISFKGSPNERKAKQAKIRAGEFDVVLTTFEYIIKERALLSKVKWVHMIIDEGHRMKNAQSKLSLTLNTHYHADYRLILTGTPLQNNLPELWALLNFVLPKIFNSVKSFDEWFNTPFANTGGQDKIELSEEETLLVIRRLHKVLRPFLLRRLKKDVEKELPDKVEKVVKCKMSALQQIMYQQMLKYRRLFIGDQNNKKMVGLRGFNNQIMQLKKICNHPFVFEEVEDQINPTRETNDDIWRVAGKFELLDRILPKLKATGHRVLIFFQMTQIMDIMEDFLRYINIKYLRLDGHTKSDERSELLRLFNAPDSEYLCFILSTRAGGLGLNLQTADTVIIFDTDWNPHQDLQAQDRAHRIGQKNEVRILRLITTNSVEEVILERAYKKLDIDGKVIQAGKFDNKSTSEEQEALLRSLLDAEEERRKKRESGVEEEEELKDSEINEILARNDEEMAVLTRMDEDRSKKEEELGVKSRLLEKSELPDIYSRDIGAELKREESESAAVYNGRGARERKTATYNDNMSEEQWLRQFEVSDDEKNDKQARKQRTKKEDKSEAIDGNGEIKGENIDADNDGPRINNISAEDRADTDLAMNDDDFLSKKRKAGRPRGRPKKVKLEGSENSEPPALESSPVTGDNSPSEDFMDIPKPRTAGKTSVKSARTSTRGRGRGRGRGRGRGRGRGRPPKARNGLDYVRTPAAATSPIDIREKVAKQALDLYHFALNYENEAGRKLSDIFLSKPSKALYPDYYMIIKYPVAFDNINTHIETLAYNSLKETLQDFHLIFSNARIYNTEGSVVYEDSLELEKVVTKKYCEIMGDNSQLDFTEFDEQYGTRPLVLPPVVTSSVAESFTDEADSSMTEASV
The data set “cryo-EM structure” deals with the molecule itself.
The target of a further data set is T1, Swi1 (S. cerevisiae, UniProt P09547 1-1314).
T1 sequence: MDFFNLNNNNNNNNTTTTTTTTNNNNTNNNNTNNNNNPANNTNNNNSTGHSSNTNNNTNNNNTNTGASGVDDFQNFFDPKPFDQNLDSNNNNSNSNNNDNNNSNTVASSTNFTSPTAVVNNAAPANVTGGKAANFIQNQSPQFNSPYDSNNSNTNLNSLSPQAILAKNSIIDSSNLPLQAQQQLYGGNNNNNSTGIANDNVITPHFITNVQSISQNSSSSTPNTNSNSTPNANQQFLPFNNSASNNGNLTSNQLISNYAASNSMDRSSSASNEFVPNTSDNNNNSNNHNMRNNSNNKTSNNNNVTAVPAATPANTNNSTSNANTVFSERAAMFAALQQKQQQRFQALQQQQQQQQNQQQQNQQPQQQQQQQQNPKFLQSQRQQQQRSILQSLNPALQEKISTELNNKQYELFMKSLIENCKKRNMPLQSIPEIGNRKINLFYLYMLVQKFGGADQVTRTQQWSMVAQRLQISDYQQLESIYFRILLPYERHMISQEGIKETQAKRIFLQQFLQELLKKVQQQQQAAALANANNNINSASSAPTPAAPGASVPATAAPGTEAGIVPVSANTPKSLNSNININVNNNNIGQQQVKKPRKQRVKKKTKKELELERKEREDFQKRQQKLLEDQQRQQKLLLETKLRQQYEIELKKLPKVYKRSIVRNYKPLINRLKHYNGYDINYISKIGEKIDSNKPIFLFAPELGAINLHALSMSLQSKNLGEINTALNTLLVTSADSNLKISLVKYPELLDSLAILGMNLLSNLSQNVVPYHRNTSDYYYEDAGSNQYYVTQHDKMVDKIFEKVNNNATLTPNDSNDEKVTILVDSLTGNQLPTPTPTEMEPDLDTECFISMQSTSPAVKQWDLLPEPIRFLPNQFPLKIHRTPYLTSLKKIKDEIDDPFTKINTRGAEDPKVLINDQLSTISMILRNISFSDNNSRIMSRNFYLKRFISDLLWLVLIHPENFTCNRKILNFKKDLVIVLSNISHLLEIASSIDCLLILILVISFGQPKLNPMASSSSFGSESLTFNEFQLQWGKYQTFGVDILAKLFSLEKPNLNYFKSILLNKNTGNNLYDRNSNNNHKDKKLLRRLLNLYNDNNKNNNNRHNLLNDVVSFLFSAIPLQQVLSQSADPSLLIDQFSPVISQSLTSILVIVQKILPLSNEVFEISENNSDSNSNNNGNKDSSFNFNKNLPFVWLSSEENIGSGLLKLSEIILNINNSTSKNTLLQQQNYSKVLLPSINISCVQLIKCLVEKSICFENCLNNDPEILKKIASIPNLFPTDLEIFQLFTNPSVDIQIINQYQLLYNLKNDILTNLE

The target of another data set is Snf5 (S. cerevisiae, UniProt P18480 1-905).
Snf5, sequence (P18480 whole entry): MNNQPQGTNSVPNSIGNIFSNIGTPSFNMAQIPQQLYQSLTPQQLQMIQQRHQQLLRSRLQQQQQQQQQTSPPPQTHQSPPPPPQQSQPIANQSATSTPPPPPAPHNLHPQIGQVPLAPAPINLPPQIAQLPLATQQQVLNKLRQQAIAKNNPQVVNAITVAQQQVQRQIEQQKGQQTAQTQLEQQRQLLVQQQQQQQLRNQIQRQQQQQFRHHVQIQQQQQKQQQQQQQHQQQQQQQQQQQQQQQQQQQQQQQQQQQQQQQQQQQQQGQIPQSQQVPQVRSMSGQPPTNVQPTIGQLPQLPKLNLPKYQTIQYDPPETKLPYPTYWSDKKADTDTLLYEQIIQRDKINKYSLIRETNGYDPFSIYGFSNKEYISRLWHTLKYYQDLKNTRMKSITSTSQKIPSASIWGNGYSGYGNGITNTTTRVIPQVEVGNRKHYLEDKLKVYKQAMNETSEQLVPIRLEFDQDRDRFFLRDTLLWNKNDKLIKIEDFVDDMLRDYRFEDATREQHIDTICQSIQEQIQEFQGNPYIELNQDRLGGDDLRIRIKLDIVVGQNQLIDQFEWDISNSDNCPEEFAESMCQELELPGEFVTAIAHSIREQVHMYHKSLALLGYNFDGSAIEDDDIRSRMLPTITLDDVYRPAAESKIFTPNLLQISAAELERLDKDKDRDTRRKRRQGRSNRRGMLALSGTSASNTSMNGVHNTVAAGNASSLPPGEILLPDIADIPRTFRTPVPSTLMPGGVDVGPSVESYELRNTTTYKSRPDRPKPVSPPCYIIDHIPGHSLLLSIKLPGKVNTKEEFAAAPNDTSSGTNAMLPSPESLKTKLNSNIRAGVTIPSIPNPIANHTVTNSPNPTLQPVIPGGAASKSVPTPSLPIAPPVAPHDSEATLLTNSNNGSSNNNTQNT
The target of the data set “Swi3” is B1.

Broadly, the stoichiometry N is a count of units in the complex or per binding partner. For the molecule B1, the binding result with Snf2, with Swi1 and with Snf5 was “binds” in each case. Moreover, in the data set “cryo-EM structure”, the “stoichiometry N” value is 2.

B2: Snf12 (natural protein)
chain: MSKVMKPSNGKGSRKSSKAATPDTKNFFHAKKKDPVNQDKANNASQITPTVPHSHPSDMVIPDHLAELIPELYSFQQLVDSEKRLDHFIHLRNLHMKRMVAQWERSKLSQEFLYPHLNFPNVKFLRIFISNVSENQPWQMDTNNEADLMALENATWTMRIEGRLLDNVQANDPAREKFSSFIESIVVDFKNKENDNVPSTKFNAAPEENATEGPSDKKLNLNLPLQFSLPNGDNSTTTNTDQNNATMGEETAKKDMSSTTPKLESVKWQYDPNNPVDFDGLDIKRVGSENVECTISILRKSSPEEPFMSYSPQLTAIIGLKSGTSHDAIFSIYKYIHLNELLTNDESAFENLMGNRNNHNSNTSTSKMLDAASSQVSIVKLDTQLITLLPSSLKESSPDTMKLTDLLSLINSTHLLPLQPIEIDYTVRVDKASTYGELVLDIEVPDVNALKFNNTQRESQIGAAELNENARELEQIKPKIALQDKEITSVLSNLHESNKRYRFFKKISEDPVKALNECIASTSNALKVLSGDEGYNEDMVRRANFYKENEAMLRENIEVILSNGRM
Regarding B2, the binding result with Swi3 and in the data set with Swi1 was “binds” each time.

B3: Swp82 (natural protein)
chain: MLGEDEGNTVLEKGNNPSVKQGEVGAVFIVPKILIREHERVILKQILQILDQDELVQPPLDKFPYKKLELPKYIDELKTRDATNTSYKMIQLDAYGEKKVGSNGELFGGRHYLFNTFTFTAHMGVLLVLLQDVIKVLYQSNATHDEDEFIVQHDQILVMETSEEQTKFLAKNGVIPEESKGSFKYITARSAFVEFGASVIAGGQRIVDDYWESLAKKQNLSSHQRVFKLSTNLISKISLLRPSFQNNRISNANEISANTNNTCTISTSKFESQYPIVTEQPSAEIREAYIENFAKGEHISAIVPGQSISGTLELSAQFRVPRYHSKNSFQQALQMKAMDIPIGRHEELLAQYESQAPDGSASISLPNHIPSVNPSNKPIKRMLSSILDINVSSSKNKKSEENEMIKPMNKGQHKNNTSLNINGWKFESLPLKSAENSGKQQYYRGLPLYEKNTLLERLKQLTPNEIKELEHLHDAVFVNTGLQNVRKVRTKKWKKYWQYKAGIPIGLKRSQLDEFKNKYLKDVLAQTSVTTNFNEITNTDETITTKRVPNPNFLGNCNIKDFKPPYIYSHVNKVPQNVAGDKTAVKLDTEVKNTNANPVVATDPVAAKPDNLANFSNEVAMNN
In the case of B3, the binding result in the data set with Swi3 and in the data set with Snf5 was “binds” in each case.
